Our source for the Kd values is patent US20220048993A1 (published 2022).

Changes are numbered by the printed parent chain.

In one assay the target is 7D8.RbIgG. Briefly: SPR; 25 °C.
Assay [1] has as its target T1, human FcRH3 (BIACORE analyte) (human, UniProt Q96P31 18-573).
T1 chain: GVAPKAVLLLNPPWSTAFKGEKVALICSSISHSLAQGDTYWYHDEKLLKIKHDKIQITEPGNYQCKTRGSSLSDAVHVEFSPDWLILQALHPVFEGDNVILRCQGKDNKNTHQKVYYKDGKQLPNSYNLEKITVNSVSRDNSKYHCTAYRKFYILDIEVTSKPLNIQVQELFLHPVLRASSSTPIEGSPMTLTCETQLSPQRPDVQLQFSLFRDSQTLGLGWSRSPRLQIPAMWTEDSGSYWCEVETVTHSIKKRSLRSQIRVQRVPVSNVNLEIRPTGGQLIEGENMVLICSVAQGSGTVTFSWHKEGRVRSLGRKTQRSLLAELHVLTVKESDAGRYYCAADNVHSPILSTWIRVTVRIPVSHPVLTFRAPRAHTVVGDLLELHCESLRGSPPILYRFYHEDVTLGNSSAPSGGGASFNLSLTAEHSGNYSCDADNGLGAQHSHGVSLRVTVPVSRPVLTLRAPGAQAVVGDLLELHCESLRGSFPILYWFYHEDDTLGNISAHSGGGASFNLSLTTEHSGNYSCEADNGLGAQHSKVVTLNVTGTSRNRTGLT
Put plainly: SPR (1:1 binding); 25 °C.

Assay [2] has as its target T2, soluble human FcRH5 protein fragment (UniProt Q96RD9 16-851).
T2 chain: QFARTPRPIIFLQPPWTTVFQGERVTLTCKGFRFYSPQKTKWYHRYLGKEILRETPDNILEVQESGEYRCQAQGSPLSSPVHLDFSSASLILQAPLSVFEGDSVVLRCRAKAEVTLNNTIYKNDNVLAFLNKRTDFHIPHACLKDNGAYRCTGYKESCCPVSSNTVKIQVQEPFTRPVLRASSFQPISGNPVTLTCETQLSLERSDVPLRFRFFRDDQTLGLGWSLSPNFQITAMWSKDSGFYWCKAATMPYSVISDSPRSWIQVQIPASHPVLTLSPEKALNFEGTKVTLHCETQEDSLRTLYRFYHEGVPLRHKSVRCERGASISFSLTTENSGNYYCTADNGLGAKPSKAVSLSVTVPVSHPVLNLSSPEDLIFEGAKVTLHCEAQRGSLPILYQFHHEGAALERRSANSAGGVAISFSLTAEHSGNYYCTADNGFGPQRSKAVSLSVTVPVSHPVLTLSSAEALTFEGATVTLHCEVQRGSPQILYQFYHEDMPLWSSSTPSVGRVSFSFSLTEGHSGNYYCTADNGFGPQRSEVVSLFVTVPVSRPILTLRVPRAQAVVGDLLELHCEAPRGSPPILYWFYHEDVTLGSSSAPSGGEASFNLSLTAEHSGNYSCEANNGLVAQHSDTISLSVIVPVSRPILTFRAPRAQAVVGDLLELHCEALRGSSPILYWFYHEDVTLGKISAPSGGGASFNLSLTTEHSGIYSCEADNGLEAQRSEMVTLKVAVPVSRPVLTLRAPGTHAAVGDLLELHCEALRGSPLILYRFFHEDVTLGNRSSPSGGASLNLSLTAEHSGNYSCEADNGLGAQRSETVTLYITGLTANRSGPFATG
Briefly: SPR.

The target in assay [3] is T3, soluble cynomolgus FcRH5 protein fragment.
T3 chain: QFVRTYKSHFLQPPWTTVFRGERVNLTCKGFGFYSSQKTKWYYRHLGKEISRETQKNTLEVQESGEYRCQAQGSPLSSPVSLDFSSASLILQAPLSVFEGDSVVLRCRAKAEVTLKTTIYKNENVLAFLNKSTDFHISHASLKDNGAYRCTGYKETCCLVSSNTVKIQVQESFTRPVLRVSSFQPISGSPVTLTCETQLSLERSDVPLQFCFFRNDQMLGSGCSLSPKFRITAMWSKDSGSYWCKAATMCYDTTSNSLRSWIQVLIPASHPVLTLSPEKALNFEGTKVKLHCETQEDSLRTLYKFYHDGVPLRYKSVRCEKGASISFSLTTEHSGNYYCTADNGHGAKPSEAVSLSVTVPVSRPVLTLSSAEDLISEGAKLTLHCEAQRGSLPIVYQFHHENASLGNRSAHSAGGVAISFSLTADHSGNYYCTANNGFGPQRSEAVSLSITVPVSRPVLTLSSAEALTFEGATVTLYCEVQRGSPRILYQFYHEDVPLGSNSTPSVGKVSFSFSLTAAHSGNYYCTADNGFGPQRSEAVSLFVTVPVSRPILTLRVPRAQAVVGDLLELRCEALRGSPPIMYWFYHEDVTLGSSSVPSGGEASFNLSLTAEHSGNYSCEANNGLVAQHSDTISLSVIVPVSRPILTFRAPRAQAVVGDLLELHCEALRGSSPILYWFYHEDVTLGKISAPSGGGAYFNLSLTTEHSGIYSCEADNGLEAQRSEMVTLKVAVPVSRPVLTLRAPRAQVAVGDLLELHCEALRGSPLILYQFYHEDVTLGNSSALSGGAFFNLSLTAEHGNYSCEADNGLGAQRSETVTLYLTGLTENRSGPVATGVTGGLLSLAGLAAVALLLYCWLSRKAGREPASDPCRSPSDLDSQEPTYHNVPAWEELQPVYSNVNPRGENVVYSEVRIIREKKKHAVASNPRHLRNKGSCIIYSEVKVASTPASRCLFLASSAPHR
Briefly: SPR; 25 °C.

The target in assay [4] is T2, soluble human FcRH5 protein fragment. Briefly: SPR; 25 °C. For orientation: In SPR one partner is held on a chip, and binding of the other changes the refractive index at the surface.

B1: Cyno FcRH5 (receptor)
chain: T3 chain
For orientation: Kd means the equilibrium constant for the complex coming apart. For B1, in the assay with 7D8.RbIgG, the Kd was 1.89 nM.

B2: Human FcRH5 (receptor)
chain: T2 chain
B2 returned a Kd with 7D8.RbIgG of 0.403 nM.

B3: 1G7.v1.4/38E4.v1 TDB (bispecific antibody, V domains shown)
VH 1: EVQLVESGPGLVKPSETLSLTCTVSGFSLTRFGVHWVRQPPGKGLEWLGVIWRGGSTDYNAAFMSRLTISKDNSKNQVSLKLSSVTAADTAVYYCSNHYYGSSDYALDNWGQGTLVTVSS
VL 1: DIQMTQSPSSLSASVGDRVTITCKASQDVRNLVVWFQQKPGKAPKLLIYSGSYRYSGVPSRFSGSGSGTDFTLTISSLQPEDFATYYCQQHYSPPYTFGQGTKVEIK
VH 2: EVQLVQSGAEVKKPGASVKVSCKASGFTFTSYYIHWVRQAPGQGLEWIGWIYPENDNTKYNEKFKDRVTITADTSTSTAYLELSSLRSEDTAVYYCARDGYSRYYFDYWGQGTLVTVSS
VL 2: DIVMTQSPDSLAVSLGERATINCKSSQSLLNSRTRKNYLAWYQQKPGQSPKLLIYWTSTRKSGVPDRFSGSGSGTDFTLTISSLQAEDVAVYYCKQSFILRTFGQGTKVEIK
In turn, B3 had a Kd in assay [1] of 76.5 nM.

B4: hu1G7.v93/38E4.v1 TDB (bispecific antibody, V domains shown)
VH 1: B3 VH 1 with L29T, M64V, S103P
VL 1: B3 VL 1 with R30S
VH 2: B3 VH 2
VL 2: B3 VL 2
Consider B4, for which binding in assay [2] was put at a Kd of 1.07 nM.

B5: h7D8.L1H2 (antibody)
chain 1: EVQLVESGGGLVQPGGSLRLSCAVSGIDLSSYAMGWVRQAPGKGLEWIGTIGTGGTPYYASWAKGRFTISKDSSKNTVYLQMNSLRAEDTAVYFCARDMYTGSIYYDMWGQGTLVTVSS
chain 2: DAQLTQSPSSLSASVGDRVTITCQSSQSVFNNAQLSWYQQKPGKPPKLLIYDTSNLASGVPSRFSGSGSGTDFTLTISSLQPEDFATYYCLGAYTDDADNAFGQGTKVEIK
In the case of B5, the equilibrium dissociation constant (Kd) in assay [3] is 4.97 nM; in assay [4] it was 1.26 nM.
